Data published in IntAct's records for PubMed 14669021.

B1: Protein ORD (Drosophila melanogaster (Fruit fly)), Q24434 (parent)
chain: MYGETTLNKNHVIKFIKLKINNCLGCDEVEINFSKADNVHIIIYSLVTDMAKDLPAVTPVAQAILLLCSLTYPDSDSLETIPQLKIGKGSVSMSFKVYPVNKEEETEPESESDLDEGPSTSKQALERMVQRAERKAKEASTRNVHSKGIYVNVERRFDMYFALDTVSYYINGGKRQSCPLPEFHAKFFVRPQHSINLLRQLHEKCSGNWLKVIQSDGDGDAFKKFKDPDSPFETFVKLFESNPIKPNDMMGKLAKTCLHVNEAVRLTEREFILEVFNQVRHIFEYITAQEYTVWFLVPCLGDKDQLRSKTLEDFDLTKVRTSIRRAGDTSNIWWDHTDHNIKDILLVAFQLDLATHVNQSVLVISHLETLAEFSTMQYVTAFFMNDFYAKKNTEPKWICHRYLERIIDVALFLGVIVIIEYPSAFTLLQEGRHLIKCFQKENADSSRTSQWEIFEDVVKENESDLEFLKEAVGKVQQNV
partner: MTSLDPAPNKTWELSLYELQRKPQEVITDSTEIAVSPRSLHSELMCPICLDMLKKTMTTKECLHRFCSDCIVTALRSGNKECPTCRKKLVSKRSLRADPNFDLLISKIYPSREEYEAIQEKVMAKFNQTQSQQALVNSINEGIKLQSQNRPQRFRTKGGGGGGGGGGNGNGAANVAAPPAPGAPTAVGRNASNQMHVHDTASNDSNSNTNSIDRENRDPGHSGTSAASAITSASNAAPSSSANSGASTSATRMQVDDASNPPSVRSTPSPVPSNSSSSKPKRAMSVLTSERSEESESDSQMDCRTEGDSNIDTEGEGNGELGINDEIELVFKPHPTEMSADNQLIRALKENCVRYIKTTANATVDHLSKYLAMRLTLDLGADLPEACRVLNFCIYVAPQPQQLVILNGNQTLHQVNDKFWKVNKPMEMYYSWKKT

Variants of: B1
Conditions: with ring1_drome Sce

| Variant | effect of a mutation on the interaction |
| --- | --- |
| MYGETTLNKNHVIKFIKLKINNCLGCDEVEINFSKADNVHIIIYSLVTDMAKDLPAVTPVAQAILLLCSLTYPDSDSLETIPQLKIGKGSVSMSFKVYPVNKEEETEPESESDLDEGPSTSKQALERMVQRAERKAKEASTRNVHSKGIYVNVERRFDMYFALDTVSYYINGGKRQSCPLPEFHAKFFVRPQHSINLLRQLHEKCSGNWLKVIQSDGDGDAFKKFKDPDSPFETFVKLFESNPIKPNDMMGKLAKTCLHVNEAVRLTEREFILEVFNQVRHIFEYITAQEYTVWFLVPCLGDKDQLRSKTLEDFDLTKVRTSIRRAGDTSNIWWDHTDHNIKDILLVAFQLDLATHVNQSVLVISHLETLAEFSTMQYVTAFFMNDFYAKKNTEPKWICHRYLERIIDVALFLGVIDIIEYPSAFTLLQEGRHLIKCFQKENADSSRTSQWEIFEDVVKENESDLEFLKEAVGKVQQNV [V417D] | decreasing interaction |
